Laboratory results reported in EP1444995A1.

Target: endogenous Translokin of mouse NIH-3T3 cells (mouse) (UniProt Q8CEE0)
Test: cell-based or functional assay

Sequence of UniProt Q8CEE0 (Q8CEE0 whole entry): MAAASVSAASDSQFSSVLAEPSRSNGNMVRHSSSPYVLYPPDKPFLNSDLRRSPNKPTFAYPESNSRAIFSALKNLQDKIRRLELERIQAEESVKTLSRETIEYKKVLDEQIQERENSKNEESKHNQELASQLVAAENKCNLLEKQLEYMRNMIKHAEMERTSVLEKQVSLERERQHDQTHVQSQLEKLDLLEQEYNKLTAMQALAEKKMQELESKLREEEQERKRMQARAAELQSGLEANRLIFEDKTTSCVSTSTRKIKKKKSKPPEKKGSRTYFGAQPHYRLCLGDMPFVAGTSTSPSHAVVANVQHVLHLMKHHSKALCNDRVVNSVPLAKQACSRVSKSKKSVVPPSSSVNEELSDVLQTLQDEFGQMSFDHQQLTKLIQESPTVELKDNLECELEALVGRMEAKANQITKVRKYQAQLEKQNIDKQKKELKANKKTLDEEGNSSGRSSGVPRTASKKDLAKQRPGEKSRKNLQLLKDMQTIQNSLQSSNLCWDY

FGF-2 nuclear accumulation in NIH-3T3 cells after Translokin siRNA: 80%
Substance: HA-tagged FGF-2 (18 kDa) (ligand)
